The text below walks through data of the RNAGym collection of RNA variant scans (doi:10.1073/pnas.2313332121).

First the molecules themselves.
B1: TPR 5TU (parent)
chain: GGAUCUUCUCGAUCUAACAAAAAAGACAAAUCUGCCACAAAGCUUGAGAGCAUCUUCGGAUGCAGAGGCGGCAGCCUUCGGUGGCGCGAUAGCGCCAACGUUCUCAACUAUGACACGCAAAACGCGUGCUCCGUUGAAUGGAGUUUAUCAUG

Fewer inactive variants are shown than the library holds. Some results are limits rather than exact numbers.

In this data set the parent is B1. The data set can be described thus: polymerase ribozyme fitness, log enrichment relative to wild type (log ratio); higher = more active; in vitro selection for triplet polymerase activity. An outline of the steps: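 Only genotypes with ≥10 input reads and ≥1 read per output were kept after Illumina sequencing of input and output libraries. These libraries were PCR-built, transcribed mutants of each subunit of a heterodimeric triplet polymerase ribozyme, each put through one triplicate in vitro selection round with frozen incubation at −7 °C, gel excision of extended constructs, streptavidin-bead capture and RT-PCR. Fitness is a logarithmic ratio of genotype enrichment to wild-type enrichment, from inverse-variance-weighted replicate averages, with the logarithm in base 2.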
Regarding GGAUCUUCUCGAUCUGACAAAAAAGACAAAUCUGCCACACAGCUUGAGAGCAUCUUCGGAUGCAGAGGCGGCAGCCUUCGGUGGCGCGAUAGCGCCAACGUUCUCAACUAUGACACGCCAAACGCGCGCUCCGUUGAAUGGAGUUUAUCAUG, the “polymerase ribozyme fitness (log ratio)” value was -3.55.

For the variant GGAUCUUAUCGAUCUAACAAAAAAGACAAAUAUGCCACAAAGCUUGAGAGCAUCUUCGGAUACAGAGGCGGCAGCCUUCGGGGGCGCGAUAGCGCCAACGUUCUCAACUAUGACACGCAAAACGCGUGCUCCGUUGAAUGGAAUUUAUCAUG, the “polymerase ribozyme fitness (log ratio)” value was no more than -4.2.

Consider GGAUCUUCUCGAUCUAACAAAAAAGACAAAUCUGCCACAAAGCUUGAGAGCAUCUUCGGAUGCAGAGGCGGCAGCCUUCGGUGGCGCGAUAGCGCCAACGUACUCAACUAUGAUGCGCAUAACGCGUGCUCCGUUGAAUGGAGUUUAUCAUG, for which the “polymerase ribozyme fitness (log ratio)” value is -3.62.

As to GGAUCUGCUCGAUCUAACAAAAAAGACAAAUCUGCCGUAAAGCUUGAGAGCAUCUUCGUUUGCAGAGGCGGCAGCCUUCGGUGGCGCGAUAGCUCCAACGUUCUCAAUUAUGACACGCAAAACGCGUGCUCCGUUGAAUGGAGUUUAUCAUG, the “polymerase ribozyme fitness (log ratio)” value was no more than -4.2.

Turning to GGAUCUUCUCGAUCUAACAUAAAAGACAAAUCUGUCACAAAGCUUGAGAGCAUCUUCGGAUGCAGAGGCGGCAGCCUUCGGUGGCGCGAUAGCGACGAAGUUCUUAACUAUGACACGCAAAACGCGUGCUCCGUUGAGUGGAGUUUAUCAUG, the “polymerase ribozyme fitness (log ratio)” value is no more than -4.2.

As to GGAUCUUCUCGAUCUAACAAAAAAGACAAAUCUGCCACAAAGCUUGAGAGCAUCUUCGGAUGCAGAGGCGGCAGCCUUCGGUGGCGCGAUAGUGCCAACGUUCUCAACUAUGACACGCUAAACGCGUGCUCCGUUGAAUGAAGUUUAUCAUG, the “polymerase ribozyme fitness (log ratio)” value was -0.528.

As for GGAUCUUCUCGAUCUAACAAAAAAGACAAAUCUGCCACAAAGCUACAGAGCAUCUUCGGAUGCAGAGGCGGCAGCCUUCGGUGGGGCCAUAGUGCCAACGUUCUCAACUAUGACCCGCAAAACGCGUGCUCCGUUGAAUGGAGUUUAUCGUG, the “polymerase ribozyme fitness (log ratio)” value is no more than -4.2.

Turning to GGAUCUCCUCGAUCUAACAAAAAAGACAAAUCUGCCACAAAGCUUGAGAUCAUCUUCGGAUGCAGAGGCGGCAGCCUUCGGUGGCGAGAAAGCGCCAACGUUCUCCACUAUGACACGCAAAACGCGUGCUCCGUUGAAUGGAGUUUAUCAUG, the “polymerase ribozyme fitness (log ratio)” value is no more than -4.2.

For the variant GGAUCUUCUCGAUCUAACAAAAAAGACAAAUCUGCCACAAAGCUUGAGAGCAUCUUCGGAUGCAGAGGCGGCAGCCUUCGGUCGCGCGAUAGCGCCAACGUUCUCAACUAUGACACGCAAAACGCGUGCUCCGUUUAAUGGAGUUUAUCAUG, the “polymerase ribozyme fitness (log ratio)” value is -2.46.

With GGAUCUUCUCGCUCUAACAAAAAAGACAAAUCUGCCAUAAAGCUUGAGACCAACGUCGGAUGCAGAGGCGUCAGCCUUCGGUGGCGCGAUAUCGCCAACGUUCUCAACUAUGACACGCAAAACGCGUGCUCCGUUGAAUGGAGUUUACCAUG, the “polymerase ribozyme fitness (log ratio)” value was no more than -4.2.

For the variant GGAUCUUCUCGAUCUAACAAAAAAGACAAAUCUGCCACAAAGCUUGAGAGCAUCUUCGGAUGCAGACGCGGCAGCCUUCGGUGGCGCGAUAGCGCCAACGAUCUCAACUAUGACACGCAAAACGCGUGCUCCGUUGAAUGUAGUUUAUCUUU, the “polymerase ribozyme fitness (log ratio)” value was no more than -4.2.

For GGAUCUUUUCGAUCUAACAAAAAAGACAAAUAUGCCACAAAGCUUGAGGGCAUCUUCGGAUGCAGAGGCGGCAGCCUUCGGUGGCGCGAUAACGCUAACGUUCUCAACUAUGACACGCAAAACGCGGGCUCCGUUGAGUGGAGUUUAUCAUG, the “polymerase ribozyme fitness (log ratio)” value is no more than -4.2.

In the case of GGAUCUUCUCGAUCUAACAAAAAAGACCAAUGUGCCACAAAGCUUGAGAGCAUCUUCGGAUGUAGAGGCGGCAGCCUUCGGUGGCGCGAUAGCGCCAACGUUCUCAACUAUGACACGCAAAACGCGUGCUCCGUUGAAUGGAGUUUAUCAUG, the “polymerase ribozyme fitness (log ratio)” value was no more than -4.2.

GGAUCUUCUCGAUCUAACAAAAAAGACAAAUCUGCCACAAAGCUUGAGAGCAUCUUCGUAUGCAGAGGCGGCAGCCUUCGAUGGGGCGAUAGCGCCAACGUUCUCCACUAUGACACGCAAAACGCGUGCUCCGUUGAAUGGAGUUUAUCAUG: the “polymerase ribozyme fitness (log ratio)” value was -3.51.

In the case of GGAUCUUCUCGAUCUAACAAAAAAGACAAAUCUGCCACAAAGCUUGCGAGAAUUUUCGGAAGCAGAGGCGGCAGCCUUAGGUGGCGCGAUAGGGACAACGUUCUCAACUAUGACACGCAAAACGCGUGCUCUGUUGAAUGGAGUUUAUUAUG, the “polymerase ribozyme fitness (log ratio)” value was no more than -4.2.

On to GGAUCAUCUCGAUCGUACAAAAAAGACAAAUCUGCCACAAAGCUUGAGAGCAUCUUCGGAUGCAGAGGCGGCAACCUUCGGGGGCGCGAUAGCGUCAACGUUCUCAACUAUGACACGCAAAACGCGUGCUCCGUUGAAUGGAGUUUAUCAUG, for which the “polymerase ribozyme fitness (log ratio)” value is no more than -4.2.

In the case of GGAUCUUCUCGGUCUAACAAAAAAGACAAAUCUGCCACAAAGCUUGAGAGCAUCUUCGGAUGCAGAGGCGGCAGCCUUCGGUGGGGCGAUAGCGCCAACGUUCUCAACUAUGACACGCAAAACGCGUGCUCCGUUGAAUGGAGUUUAUCAUG, the “polymerase ribozyme fitness (log ratio)” value is -1.96.

On to GGAUCUUCUCGAUCUAACAAAAAAGACAAAUCUGCCACAAAGCUUGAGAGCAUCUUCGGAUGCAGAGGCGGCAGCCUUCGGUGUCGCGAUAGCGCCAAUGUUCUCAACUAUGACACGCAAAACGCGUGCUCCGUUGAAUGCAGUUUAUCAUG, for which the “polymerase ribozyme fitness (log ratio)” value is -2.46.

As to GGAUCUUCUCGAUCUAACAAAAAAGACAAAUCUGCCACAAAGCUUGAGAGCAUCUUCGGAUGCAGAGGCGGCAGCCUUCCGUGGCGCGAUAGGGCCAACGUUCUCAACUAUGACACGCAAAACGCGUGCUCCGUUGAAUGGAGUUUAUCAUG, the “polymerase ribozyme fitness (log ratio)” value was -4.2.
